Results on one substance are retold here after PMC4572934.

This test concerns the target GST-tagged FXR ligand binding domain (FXR-LBD). As to the kind of experiment: AlphaScreen or HTRF; FXR coactivator recruitment assay with increasing amounts of mometasone furoate (MF); GST-FXR-LBD on anti-GST acceptor beads, biotinylated SRC-1 peptide on streptavidin donor beads; 1 hour incubation with ligand, then 4 hours with beads.

“biotinylated SRC-1 peptide (co-activator)” registered an efficacy of SRC-1 recruitment with MF compared to CDCA of 12%.
